Laboratory results: US11110182B2, “Multifunctional RNA nanoparticles and methods for treating cancer and therapeutic resistant cancer” (University of Cincinnati, priority 2016, dated 2021)

Tested on: ERα target genes TFF-1, c-Myc, cyclin D1
Test: mRNA levels of ERα target genes by real-time PCR in BT474 cells
Assay type: cell-based, human
Details: BT474, 48 h
Description: FIG. 3A) BT474 cells were incubated with 10 μg/mL control and pRNA-HER2apt-siMED1 nanoparticles for 48 h, and MED1 mRNA level was determined by real-time PCR. FIG. 3B) BT474 cells were incubated directly with (as indicated by -) or transfected with indicated pRNAs using lipofectamine 2000. At 48 h post treatment, MED1 protein levels were determined by western blotting. FIG. 3C) BT474 cells were treated with 10 μg/mL pRNA nanoparticles for 48 h and assayed for cell viability by MTT assay. FIG. 3D) Cells were treated as above and seeded for migration, and FIG. 3E) invasion transwell assays. Scale bar: 50 μm. FIG. 3F) After pRNA treatment for 48 h, the mRNA levels of ERα target genes TFF-1, FIG. 3G) c-Myc, and FIG. 3H) cyclin D1 in BT474 cells were determined by real-time PCR.
Cell culture. Human breast cancer luciferase-overexpressing BT474 and MDA-MB-231 cells were maintained in DMEM medium (Hyclone, Thermo Scientific) supplemented with 10% fetal bovine serum (FBS, Sigma) and 1% penicillin/streptomycin (Corning) at 37° C. in a humidified atmosphere with 5% CO2.^53 • Generation of pRNA nanoparticles. The two strands of pRNA were synthesized with the DNA templates, which were amplified with overlapping primers (Sigma) by PCR methods, using a T7 promoter-controlled in vitro RNA transcription system as previously described^33 (Table 1). All the CTP and UTP used for synthesis of the pRNA nanoparticles were 2′-fluoro modified, except the control unmodified pRNA nanoparticles used in the stability assays. […] The hydrodynamic diameter and Tm value of pRNA nanoparticles were determined using dynamic light scattering and TGGE assay, respectively, as previously described.^54 The AFM imaging of the pRNA nanoparticles was performed at the University of Nebraska Medical Center imaging facility as previously reported.^55 Briefly, the pRNA nanoparticles (5 μL) were deposited on APS modified mica ^56 for a total of 2 min of incubation time. […] After washing three times with PBS, the cellular uptake of pRNAs was determined using a BD LSRFortessa™ flow cytometer. • Real-time PCR. […]

B1: pRNA-HER2apt-siMED1: 3-WJ pRNA nanoparticle bearing a HER2-targeting RNA aptamer and two different MED1 siRNAs; strands p1 SEQ ID NO: 3, p2 SEQ ID NO: 4 (nucleic acid)
chain 1: GGACAGUGAAAGUGAGUCAAAGGAUCAAUCAUGGCCAAAGAUGUUACUUUGAGAGCCUU
chain 2: GGCUCUCAAAGUAACAUCUAAGGCCAUGUGUAUGUGGGGGGAGGACGAUGCGGUCUGCUGUGCUUGAUAUGCCCCAGACGACUCGCCCCCCACAUACUUUGUUGAUCCAAUGACUCACUUUCACUGUCCUU
modifications: 2'-F modification; third strand may lack entry; pRNA-HER2apt-siMED1, p1; pRNA-HER2apt-siMED1, p2
significantly down-regulated: TFF-1 mRNA expression | c-Myc mRNA expression | cyclin D1 mRNA expression
